Results: the supplement of paper PMC7877785
± gives the uncertainty stated by the source.

Assay: self-splicing fitness, log relative to wild type (ln ratio); higher = more splicing; Tetrahymena group I intron in knt gene, E. coli kanamycin selection, DiMSum; sequences stand for … in CUCUCU…GGAGGGAAAAGUUAUCAGGCAUGCACCUGGUAGCUAGUCUUUAAACCAAUAGAUUGCAUCGGUUUAAAAGGCAAGACCGUCAAAUUGCGGGAAAGGGGUCAACAGCCGUUCAGUACCAAGUCUCAGGGGAAACUUUGAGAUGGCCUUGCAAAGGGUAUGGUAAUAAGCUGACGGACAUGGUCCUAACCACGCAGCCAAGUCCUAAGUCAACAGAUCUUCUGUUGAUAUGGAUGCAGUUCACAGACUAAAUGUCGGUCGGGGAAGAUGUAUUCUUCUCAUAAGAUAUAGUCGGACCUCUCCUUAAUGGGAGCUAGCGGAUGAAGUGAUGCAACACUGGAGCCGCUGGGAACUAAUUUGUAUGCGAAAGUAUAUUGAUUAGUUUUGGAGUACUCGUGGUCG
Procedure, shortened: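 A randomised library covering all eight P1ex-region intron nucleotides was built with the intron in the knt kanamycin-resistance gene on pET-22b(+) and held in E. coli BL21(DE3). Cells were grown overnight at 37°C or 30°C on LB agar, with or without 25 μg/mL kanamycin, plus 100 μg/mL carbenicillin, 50 μM IPTG and 0.2% rhamnose, and pooled colonies were amplicon-sequenced on an Illumina HiSeq 2500. DiMSum fitness is the error-weighted combination of wild-type-normalised replicate fold changes, kanamycin versus none.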

Sequence	self-splicing fitness (ln) (30 °C)	self-splicing fitness (ln) (37 °C)
CCCCAGCAAUAUUACGAUUC	-3.81 ± 0.2	-2.46 ± 0.23
CGUCAGCAAUAUUACGCUUG	-1.03 ± 0.098	0.41 ± 0.12
UCGGAGCAAUAUUACGACUA	-1.22 ± 0.37	-1.83 ± 0.38
CGCAAGCAAUAUUACGGGUA	-1.68 ± 0.086	-0.81 ± 0.09
GAUGAGCAAUAUUACGAUGU	-2.63 ± 0.25	-2.15 ± 0.35
CCCCAGCAAUAUUACGGUGU	-3.26 ± 0.11	-1.94 ± 0.1
UCUGAGCAAUAUUACGGGUG	-3.83 ± 0.19	-2.42 ± 0.14
AAACAGCAAUAUUACGGACG	-2.25 ± 0.087	-0.676 ± 0.097
CUUGAGCAAUAUUACGGGUU	-2.91 ± 0.32	-2.92 ± 0.28
GACUAGCAAUAUUACGUGCC	-1.75 ± 0.12	-1.58 ± 0.18
CGGCAGCAAUAUUACGCGGC	-2.84 ± 0.27	-3.03 ± 0.26
AAGGAGCAAUAUUACGACCG	-2.16 ± 0.29	–
AAUCAGCAAUAUUACGACCG	-0.959 ± 0.098	-0.795 ± 0.11
GAGUAGCAAUAUUACGGCCA	-1.95 ± 0.18	0.281 ± 0.26
GACUAGCAAUAUUACGAUAA	-0.678 ± 0.12	-0.492 ± 0.13
CCCAAGCAAUAUUACGGGGA	-2.82 ± 0.13	-1.62 ± 0.09
UGUUAGCAAUAUUACGCUUA	-1.73 ± 0.18	-0.323 ± 0.21
GGCCAGCAAUAUUACGAAGA	-3.15 ± 0.22	-2.85 ± 0.27
UCCCAGCAAUAUUACGUGGG	-3.37 ± 0.1	-2.85 ± 0.16
UCUUAGCAAUAUUACGUUCA	-2.92 ± 0.14	-1.85 ± 0.11
UCGUAGCAAUAUUACGAUUG	-2.6 ± 0.15	-2.92 ± 0.28
ACCAAGCAAUAUUACGCCUC	-2.34 ± 0.22	-0.371 ± 0.18
AGUAAGCAAUAUUACGAGCA	-0.223 ± 0.1	-0.349 ± 0.11
GUAAAGCAAUAUUACGAGUC	-2.56 ± 0.15	-1.38 ± 0.19

Sequence	self-splicing fitness (ln) (30 °C)	self-splicing fitness (ln) (37 °C)
ACUGAGCAAUAUUACGACUU	-1.4 ± 0.11	-0.511 ± 0.14
CAUGAGCAAUAUUACGAGGU	-3.26 ± 0.33	-3.11 ± 0.4
UACCAGCAAUAUUACGACCU	-2.1 ± 0.17	-1.57 ± 0.17
GUCGAGCAAUAUUACGCGGG	-2.85 ± 0.15	-1.94 ± 0.19
UAGGAGCAAUAUUACGUGGU	-3.87 ± 0.29	-2.26 ± 0.24
AGUUAGCAAUAUUACGUAUA	-3.01 ± 0.19	-1.57 ± 0.16
CACUAGCAAUAUUACGCUAG	-3.17 ± 0.26	-2.41 ± 0.27
AAAGAGCAAUAUUACGCCCU	-2.57 ± 0.21	-0.718 ± 0.17
CGUGAGCAAUAUUACGCAAC	-2.77 ± 0.36	-2.18 ± 0.33
ACCGAGCAAUAUUACGGGUA	-2.6 ± 0.16	-0.706 ± 0.13
CGUUAGCAAUAUUACGGGAA	-2.14 ± 0.17	-2.36 ± 0.28
GGUAAGCAAUAUUACGAGUA	-2.4 ± 0.21	-1.03 ± 0.14
CAAGAGCAAUAUUACGAAGA	-1.75 ± 0.35	-3.14 ± 0.43
CCGCAGCAAUAUUACGAUGU	-3.21 ± 0.14	-2.83 ± 0.17
CACCAGCAAUAUUACGUUGU	-3.58 ± 0.14	-2.29 ± 0.14
CAGUAGCAAUAUUACGACAA	-1.98 ± 0.19	-1.62 ± 0.15
GACGAGCAAUAUUACGGAGC	-4.4 ± 0.39	-2.27 ± 0.22
CACUAGCAAUAUUACGUGGA	-3.76 ± 0.32	-2.44 ± 0.14
UCUUAGCAAUAUUACGAGGU	-3.29 ± 0.29	-1.82 ± 0.2
CUCGAGCAAUAUUACGGCAU	-2.71 ± 0.19	-3.09 ± 0.37
CAUAAGCAAUAUUACGUUUA	-2.97 ± 0.23	-2.42 ± 0.28
CCACAGCAAUAUUACGUAGC	-4.48 ± 0.29	-2.7 ± 0.26
UCCUAGCAAUAUUACGCAGA	-1.87 ± 0.2	-0.401 ± 0.15
UAACAGCAAUAUUACGGGAA	-1.76 ± 0.13	-1.35 ± 0.11
